Columns and labels:
[1] = tested on: AncSZ; assay: phosphorylation enrichment, bacterial display (enrichment ratio); higher = better substrate or ligand; peptides without Tyr show the background
[2] = target: EPHB1 (UniProt P54762); assay: as above
[3] = target: EPHB2 (UniProt P29323); assay: as above
[4] = target: FGFR1 (UniProt P11362); assay: as above
[5] = target: FGFR3 (UniProt P22607); assay: as above
[6] = tested on: Fer (mouse); assay: as above
[7] = target: Fes (UniProt P07332); assay: as above
[8] = target: Fyn (UniProt P06241); assay: as above
[9] = target: Hck (UniProt P08631); assay: as above
[10] = target: Jak2 (UniProt O60674); assay: as above
[11] = target: MERTK (UniProt Q12866); assay: as above
[12] = tested on: c-Abl (mouse); assay: as above
[13] = tested on: c-Src; assay: as above
[14] = target: Grb2 SH2 (UniProt P62993); assay: SH2 binding enrichment of the phosphorylated peptide, bacterial display (enrichment ratio); higher = better substrate or ligand; peptides without Tyr show the background
[15] = target: SHP2-C SH2; assay: as above
[16] = target: c-Src SH2; assay: as above
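Wherever SH2 binding enrichment of the phosphorylated peptide, bacterial display is given: peptide library displayed on the E. coli surface as eCPX fusions, selected cells deep-sequenced, score is each peptide's frequency after selection divided by its frequency in the input.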
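Wherever phosphorylation enrichment, bacterial display is given: 11-residue human phosphosite peptides and single-mutation variants displayed on the E. coli surface, counted by deep sequencing, each peptide's frequency after selection divided by its frequency in the unselected input library; frequency after pTyr selection over input frequency; kinase dosed for 20-30% of maximal phosphorylation in three min.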

Sequence of MERTK (Q12866 whole entry, looked up): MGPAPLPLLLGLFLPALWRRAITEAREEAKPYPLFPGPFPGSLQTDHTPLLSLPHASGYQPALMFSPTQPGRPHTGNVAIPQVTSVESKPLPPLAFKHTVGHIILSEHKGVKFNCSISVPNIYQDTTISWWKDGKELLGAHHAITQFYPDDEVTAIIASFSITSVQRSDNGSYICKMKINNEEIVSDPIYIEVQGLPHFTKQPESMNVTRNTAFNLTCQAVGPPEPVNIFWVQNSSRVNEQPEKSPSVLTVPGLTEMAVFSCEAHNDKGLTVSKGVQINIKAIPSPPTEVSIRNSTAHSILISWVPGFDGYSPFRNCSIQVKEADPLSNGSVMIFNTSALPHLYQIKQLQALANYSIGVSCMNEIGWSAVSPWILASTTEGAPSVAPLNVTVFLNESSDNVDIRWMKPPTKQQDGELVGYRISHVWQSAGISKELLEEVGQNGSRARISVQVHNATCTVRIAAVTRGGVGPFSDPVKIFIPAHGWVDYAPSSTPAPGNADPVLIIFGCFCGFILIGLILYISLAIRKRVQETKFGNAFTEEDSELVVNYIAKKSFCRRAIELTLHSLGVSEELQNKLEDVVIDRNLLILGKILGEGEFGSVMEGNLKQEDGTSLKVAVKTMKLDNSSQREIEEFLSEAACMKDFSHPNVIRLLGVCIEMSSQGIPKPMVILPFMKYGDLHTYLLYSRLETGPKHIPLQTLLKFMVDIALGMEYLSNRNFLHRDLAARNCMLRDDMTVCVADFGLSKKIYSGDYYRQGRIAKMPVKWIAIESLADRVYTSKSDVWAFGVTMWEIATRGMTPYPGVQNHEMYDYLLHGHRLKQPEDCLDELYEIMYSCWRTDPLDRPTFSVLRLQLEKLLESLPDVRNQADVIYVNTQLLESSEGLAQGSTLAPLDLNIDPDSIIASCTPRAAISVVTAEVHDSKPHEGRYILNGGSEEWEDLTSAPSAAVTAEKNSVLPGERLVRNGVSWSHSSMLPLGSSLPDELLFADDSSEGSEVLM
Sequence of EPHB2 (P29323 whole entry, looked up): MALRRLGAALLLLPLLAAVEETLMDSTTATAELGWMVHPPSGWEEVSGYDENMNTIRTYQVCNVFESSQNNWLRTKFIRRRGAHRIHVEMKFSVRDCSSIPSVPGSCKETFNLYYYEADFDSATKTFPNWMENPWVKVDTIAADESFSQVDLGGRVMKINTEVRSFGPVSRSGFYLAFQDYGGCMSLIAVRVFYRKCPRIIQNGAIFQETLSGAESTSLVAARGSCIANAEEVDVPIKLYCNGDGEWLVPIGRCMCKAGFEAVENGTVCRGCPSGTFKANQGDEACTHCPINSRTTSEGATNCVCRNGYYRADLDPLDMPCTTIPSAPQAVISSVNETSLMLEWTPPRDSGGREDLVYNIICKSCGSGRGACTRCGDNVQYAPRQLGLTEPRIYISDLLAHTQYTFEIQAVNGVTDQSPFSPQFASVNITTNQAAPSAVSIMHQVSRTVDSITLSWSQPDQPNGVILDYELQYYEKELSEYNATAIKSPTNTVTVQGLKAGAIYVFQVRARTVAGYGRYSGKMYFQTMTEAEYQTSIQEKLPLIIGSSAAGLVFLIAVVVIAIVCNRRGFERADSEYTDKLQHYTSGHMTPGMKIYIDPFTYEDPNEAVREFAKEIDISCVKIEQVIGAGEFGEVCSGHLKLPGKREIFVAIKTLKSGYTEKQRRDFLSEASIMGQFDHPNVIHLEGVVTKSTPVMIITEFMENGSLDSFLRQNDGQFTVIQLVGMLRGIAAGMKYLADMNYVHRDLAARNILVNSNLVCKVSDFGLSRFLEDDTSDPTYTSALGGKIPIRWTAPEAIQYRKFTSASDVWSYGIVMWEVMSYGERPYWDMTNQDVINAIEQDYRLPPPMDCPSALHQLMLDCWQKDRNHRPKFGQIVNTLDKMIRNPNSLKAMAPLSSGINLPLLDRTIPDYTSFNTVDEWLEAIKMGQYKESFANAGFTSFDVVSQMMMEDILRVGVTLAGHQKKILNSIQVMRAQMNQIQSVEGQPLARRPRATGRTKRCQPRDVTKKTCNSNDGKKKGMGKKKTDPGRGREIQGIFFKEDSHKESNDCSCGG
Sequence of EPHB1 (P54762 whole entry, looked up): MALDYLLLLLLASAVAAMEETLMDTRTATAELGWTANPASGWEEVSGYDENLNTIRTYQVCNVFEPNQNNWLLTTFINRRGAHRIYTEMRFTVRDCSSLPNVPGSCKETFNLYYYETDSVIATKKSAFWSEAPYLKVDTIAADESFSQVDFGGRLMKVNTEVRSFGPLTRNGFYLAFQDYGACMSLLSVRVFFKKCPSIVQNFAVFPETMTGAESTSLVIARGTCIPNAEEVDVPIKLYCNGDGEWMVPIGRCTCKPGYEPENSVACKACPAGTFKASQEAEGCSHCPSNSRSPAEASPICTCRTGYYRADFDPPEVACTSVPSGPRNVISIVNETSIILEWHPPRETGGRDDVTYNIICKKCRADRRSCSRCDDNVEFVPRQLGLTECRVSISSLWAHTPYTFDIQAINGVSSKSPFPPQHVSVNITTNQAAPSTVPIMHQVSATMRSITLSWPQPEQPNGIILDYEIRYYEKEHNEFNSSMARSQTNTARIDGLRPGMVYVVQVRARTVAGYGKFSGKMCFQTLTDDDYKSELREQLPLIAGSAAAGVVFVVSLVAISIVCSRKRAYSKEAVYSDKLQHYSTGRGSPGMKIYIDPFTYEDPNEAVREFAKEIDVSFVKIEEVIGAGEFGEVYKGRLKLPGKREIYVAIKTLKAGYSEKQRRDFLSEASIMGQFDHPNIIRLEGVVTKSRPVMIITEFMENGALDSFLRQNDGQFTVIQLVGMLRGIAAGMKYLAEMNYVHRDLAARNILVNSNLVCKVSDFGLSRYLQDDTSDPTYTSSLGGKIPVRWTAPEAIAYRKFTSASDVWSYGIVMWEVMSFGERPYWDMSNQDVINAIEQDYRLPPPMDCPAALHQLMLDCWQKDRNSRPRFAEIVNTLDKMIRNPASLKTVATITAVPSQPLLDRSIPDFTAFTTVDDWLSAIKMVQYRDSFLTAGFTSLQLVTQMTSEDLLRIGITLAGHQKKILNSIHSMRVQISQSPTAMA
Sequence of Fyn (P06241 whole entry, looked up): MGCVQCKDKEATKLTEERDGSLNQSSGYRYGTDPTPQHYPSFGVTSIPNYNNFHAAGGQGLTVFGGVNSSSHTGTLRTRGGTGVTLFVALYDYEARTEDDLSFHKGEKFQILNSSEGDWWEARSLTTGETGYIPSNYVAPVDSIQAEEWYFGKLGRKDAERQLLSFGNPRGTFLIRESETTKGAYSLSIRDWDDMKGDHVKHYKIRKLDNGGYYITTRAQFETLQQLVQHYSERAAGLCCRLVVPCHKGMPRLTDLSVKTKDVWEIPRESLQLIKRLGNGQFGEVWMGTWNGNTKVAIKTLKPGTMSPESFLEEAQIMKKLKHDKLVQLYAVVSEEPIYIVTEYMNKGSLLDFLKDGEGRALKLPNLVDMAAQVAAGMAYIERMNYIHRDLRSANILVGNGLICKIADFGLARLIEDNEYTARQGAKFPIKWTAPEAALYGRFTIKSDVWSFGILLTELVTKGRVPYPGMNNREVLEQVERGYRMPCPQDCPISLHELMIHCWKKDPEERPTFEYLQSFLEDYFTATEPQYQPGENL
Sequence of FGFR3 (P22607 whole entry, looked up): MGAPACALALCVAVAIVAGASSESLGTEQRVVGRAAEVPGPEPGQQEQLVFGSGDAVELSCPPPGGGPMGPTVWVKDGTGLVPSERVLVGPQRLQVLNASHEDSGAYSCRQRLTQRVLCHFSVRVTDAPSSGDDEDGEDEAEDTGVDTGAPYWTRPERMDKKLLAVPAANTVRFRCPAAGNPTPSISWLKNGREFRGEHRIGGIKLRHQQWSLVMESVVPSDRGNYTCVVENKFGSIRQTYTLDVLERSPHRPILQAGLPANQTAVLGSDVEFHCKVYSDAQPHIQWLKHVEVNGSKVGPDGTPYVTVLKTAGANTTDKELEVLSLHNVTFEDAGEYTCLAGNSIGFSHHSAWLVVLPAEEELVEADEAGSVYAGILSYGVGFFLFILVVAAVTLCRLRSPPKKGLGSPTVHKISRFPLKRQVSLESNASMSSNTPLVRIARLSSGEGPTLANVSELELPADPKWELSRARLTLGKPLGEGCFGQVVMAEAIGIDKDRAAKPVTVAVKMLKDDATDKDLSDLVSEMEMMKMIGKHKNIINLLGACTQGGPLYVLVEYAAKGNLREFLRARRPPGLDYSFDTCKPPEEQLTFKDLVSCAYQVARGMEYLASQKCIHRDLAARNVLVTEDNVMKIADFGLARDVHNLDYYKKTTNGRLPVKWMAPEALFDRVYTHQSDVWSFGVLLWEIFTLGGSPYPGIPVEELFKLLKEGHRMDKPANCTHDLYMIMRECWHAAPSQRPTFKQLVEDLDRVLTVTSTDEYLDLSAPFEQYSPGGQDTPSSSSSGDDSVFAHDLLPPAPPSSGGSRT
Sequence of Hck (P08631 whole entry, looked up): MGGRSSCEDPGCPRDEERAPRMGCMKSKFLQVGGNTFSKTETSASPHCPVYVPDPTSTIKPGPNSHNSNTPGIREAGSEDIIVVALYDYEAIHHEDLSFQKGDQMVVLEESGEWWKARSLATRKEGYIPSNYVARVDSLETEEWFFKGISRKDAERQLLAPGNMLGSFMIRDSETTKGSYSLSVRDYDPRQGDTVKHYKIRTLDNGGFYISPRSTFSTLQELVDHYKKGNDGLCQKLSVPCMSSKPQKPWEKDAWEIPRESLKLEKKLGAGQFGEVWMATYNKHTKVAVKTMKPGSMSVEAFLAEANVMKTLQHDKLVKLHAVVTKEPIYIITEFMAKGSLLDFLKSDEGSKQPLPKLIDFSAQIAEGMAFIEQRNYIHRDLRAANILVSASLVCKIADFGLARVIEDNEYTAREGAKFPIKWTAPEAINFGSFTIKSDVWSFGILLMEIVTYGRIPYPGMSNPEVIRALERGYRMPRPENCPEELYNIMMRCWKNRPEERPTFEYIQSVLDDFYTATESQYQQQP

KFMVGYEMIAQ [GALT_Y339_L342I] gave a phosphorylation enrichment [1] of 1.03, a phosphorylation enrichment [2] of 0.58 and a phosphorylation enrichment [3] of 0.569. For the same sequence, the phosphorylation enrichment [4] was 0.492, the phosphorylation enrichment [5] was 0.723 and the phosphorylation enrichment [6] was 0.487. The phosphorylation enrichment [7] was 1.06, the phosphorylation enrichment [8] was 0.444 and the phosphorylation enrichment [9] was 0.507. It also gave a phosphorylation enrichment [10] of 0.956, a phosphorylation enrichment [11] of 0.457 and a phosphorylation enrichment [12] of 0.696. For the same sequence, the phosphorylation enrichment [13] was 0.427, the SH2 binding enrichment [14] was 0.914 and the SH2 binding enrichment [15] was 0.884. For the same sequence, the SH2 binding enrichment [16] was 7.36.
With KGEDFYCVTYH [FHL1_Y149_C153Y] the phosphorylation enrichment [1] was 1.84, the phosphorylation enrichment [2] was 1.09 and the phosphorylation enrichment [3] was 1.12. For the same sequence, the phosphorylation enrichment [4] was 1.1, the phosphorylation enrichment [5] was 1.22 and the phosphorylation enrichment [6] was 2.15. For the same sequence, the phosphorylation enrichment [7] was 1.5, the phosphorylation enrichment [8] was 2.6 and the phosphorylation enrichment [9] was 1.71. It also gave a phosphorylation enrichment [10] of 1.25, a phosphorylation enrichment [11] of 3.58 and a phosphorylation enrichment [12] of 1.04. It also gave a phosphorylation enrichment [13] of 2.37, an SH2 binding enrichment [14] of 0.562 and an SH2 binding enrichment [15] of 0.484. For the same sequence, the SH2 binding enrichment [16] was 0.39.
Sequence KGERGYPGTPG [COL4A1_Y348] has a phosphorylation enrichment [1] of 0.384, a phosphorylation enrichment [2] of 0.336 and a phosphorylation enrichment [3] of 0.372. It also gave a phosphorylation enrichment [4] of 0.354, a phosphorylation enrichment [5] of 0.406 and a phosphorylation enrichment [6] of 0.399. For the same sequence, the phosphorylation enrichment [7] was 0.433, the phosphorylation enrichment [8] was 0.311 and the phosphorylation enrichment [9] was 0.38. The phosphorylation enrichment [10] was 0.359, the phosphorylation enrichment [11] was 0.356 and the phosphorylation enrichment [12] was 0.42. The phosphorylation enrichment [13] was 0.419, the SH2 binding enrichment [14] was 0.832 and the SH2 binding enrichment [15] was 0.77. The SH2 binding enrichment [16] was 0.482.
In the case of KGSEGYLAATF [NF1_Y2503_YF], the phosphorylation enrichment [1] was 0.654, the phosphorylation enrichment [2] was 0.41 and the phosphorylation enrichment [3] was 0.402. The phosphorylation enrichment [4] was 0.444, the phosphorylation enrichment [5] was 0.549 and the phosphorylation enrichment [6] was 0.45. The phosphorylation enrichment [7] was 0.658, the phosphorylation enrichment [8] was 0.501 and the phosphorylation enrichment [9] was 0.416. For the same sequence, the phosphorylation enrichment [10] was 0.709, the phosphorylation enrichment [11] was 0.514 and the phosphorylation enrichment [12] was 0.634. For the same sequence, the phosphorylation enrichment [13] was 0.564, the SH2 binding enrichment [14] was 0.766 and the SH2 binding enrichment [15] was 0.847. For the same sequence, the SH2 binding enrichment [16] was 0.474.
KHASTYREAAT [DEAF1_Y483] gave a phosphorylation enrichment [1] of 0.425, a phosphorylation enrichment [2] of 0.328 and a phosphorylation enrichment [3] of 0.324. It also gave a phosphorylation enrichment [4] of 0.339, a phosphorylation enrichment [5] of 0.39 and a phosphorylation enrichment [6] of 0.363. For the same sequence, the phosphorylation enrichment [7] was 0.518, the phosphorylation enrichment [8] was 0.322 and the phosphorylation enrichment [9] was 0.344. The phosphorylation enrichment [10] was 0.356, the phosphorylation enrichment [11] was 0.359 and the phosphorylation enrichment [12] was 0.52. It also gave a phosphorylation enrichment [13] of 0.307, an SH2 binding enrichment [14] of 0.874 and an SH2 binding enrichment [15] of 0.755. For the same sequence, the SH2 binding enrichment [16] was 0.625.
For KHGGNYVPAPE [OSCP1_Y237_K242E], the phosphorylation enrichment [1] was 0.754, the phosphorylation enrichment [2] was 0.369 and the phosphorylation enrichment [3] was 0.471. For the same sequence, the phosphorylation enrichment [4] was 0.403, the phosphorylation enrichment [5] was 0.477 and the phosphorylation enrichment [6] was 0.36. The phosphorylation enrichment [7] was 0.626, the phosphorylation enrichment [8] was 0.398 and the phosphorylation enrichment [9] was 0.325. The phosphorylation enrichment [10] was 0.471, the phosphorylation enrichment [11] was 0.345 and the phosphorylation enrichment [12] was 0.455. It also gave a phosphorylation enrichment [13] of 0.405, an SH2 binding enrichment [14] of 0.619 and an SH2 binding enrichment [15] of 0.614. The SH2 binding enrichment [16] was 0.456.
With KIFPEYLSNWT [AIFM1_Y347_L344F] the phosphorylation enrichment [1] was 0.914, the phosphorylation enrichment [2] was 0.513 and the phosphorylation enrichment [3] was 0.512. It also gave a phosphorylation enrichment [4] of 0.811, a phosphorylation enrichment [5] of 0.721 and a phosphorylation enrichment [6] of 0.502. For the same sequence, the phosphorylation enrichment [7] was 0.916, the phosphorylation enrichment [8] was 0.43 and the phosphorylation enrichment [9] was 0.488. It also gave a phosphorylation enrichment [10] of 1.18, a phosphorylation enrichment [11] of 0.47 and a phosphorylation enrichment [12] of 0.657. It also gave a phosphorylation enrichment [13] of 0.479, an SH2 binding enrichment [14] of 0.944 and an SH2 binding enrichment [15] of 0.614. It also gave an SH2 binding enrichment [16] of 0.628.

Reference: the supplement of paper PMC10065799, “High-throughput profiling of sequence recognition by tyrosine kinases and SH2 domains using bacterial peptide display” (eLife, 2023)
